Experimental data reported in article PMC8326573.

Target: C. trachomatis PmpD fragment D^269–918, His-tagged (C. trachomatis serovar E) (UniProt O84818)
Assay: native gel or EMSA; Blue Native-PAGE (Native PAGE Novex 3–12% Bis-Tris), 1 μg of each renatured His-tagged Pmp fragment alone; Coomassie staining and anti-His immunoblot

C. trachomatis PmpD fragment D^269–918, His-tagged (from UniProt O84818 269-918) (domain or fragment)
stoichiometry N: 2
